Laboratory results reported in doi:10.1101/607101 (bioRxiv, 2019).

Biological target: the molecule itself
Experiment: crystal structure

B1: Kitasatospora setae enoyl-CoA carboxylase/reductase (ECR), wild type (enzyme)
chain: MQEILDAILSGDAASADYAALALPESYRAVTLHKGEERMFDGLASRDKDPRKSLHLDDVPLPELGPGEALVAVMASSVNYNTVWSSIFEPVSTFGFLERYGRLSPLTARHDLPYHVLGSDLAGVVLRTGAGVNAWKPGDEVVAHCLSVELESPDGHNDTMMDPEQRIWGFETNFGGLAQLALVKTNQLLPKPKHLTWEEAASPGLVNSTAYRQLVSRNGAGLKQGDNVLIWGASGGLGSYATQYALAGGATPICVVSSPRKADICRAMGAEAIIDRSAEGYRFWKDEHHQDPREWKRLGGKIREFTGGEDVDIVFEHPGRETFGASVYVTRKGGTIVTCASTSGYMHQYDNRYLWMSLKRIVGSHFANYREAFEANRLVAKGKIHPTLSKVYALEETGQAALDVHHNKHQGKVGVLCLAPREGLGVTDPELRSKHLTKINAFRNV
stoichiometry N: 4
